For 8 sequences, thermal stability score and melting temperature results are on record in the supplement of paper PMC5998384.

Data set [1] has as its system HeLa Kyoto. Nature of the data set: thermal stability score vs G1/S (z-score of summed log2 fold changes over temperatures); higher = more thermally stable than in G1/S.
For data set [2], the system named is HeLa Kyoto. The data set can be described thus: melting temperature (median over replicates), in situ; higher = more thermally stable.
The mark [3] stands for this setting: cell cycle stage: early G1 (4.5 h after nocodazole release).
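Throughout, for melting temperature (median over replicates), in situ: HeLa Kyoto cells synchronized by double thymidine or nocodazole block, proteins quantified by TMT10plex mass spectrometry, three independent biological replicates.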
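Throughout, for thermal stability score vs G1/S (z-score of summed log2 fold changes over temperatures): synchronized HeLa Kyoto cells, proteins quantified by TMT10plex mass spectrometry, three biological replicates, mitosis taken 0.5 h after nocodazole release, G1/S directly after double thymidine block.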

With “MGLEAQRLPGAEEAPVRVALRVRPLLPKELLHGHQSCLQVEPGLGRVTLGRDRHFGFHVVLAEDAGQEAVYQACVQPLLEAFFEGFNATVFAYGQTGSGKTYTMGEASVASLLEDEQGIVPRAMAEAFKLIDENDLLDCLVHVSYLEVYKEEFRDLLEVGTASRDIQLREDERGNVVLCGVKEVDVEGLDEVLSLLEMGNAARHTGATHLNHLSSRSHTVFTVTLEQRGRAPSRLPRPAPGQLLVSKFHFVDLAGSERVLKTGSTGERLKESIQINSSLLALGNVISALGDPQRRGSHIPYRDSKITRILKDSLGGNAKTVMIACVSPSSSDFDETLNTLNYASRAQNIRNRATVNWRPEAERPPEETASGARGPPRHRSETRIIHRGRRAPGPATASAAAAMRLGAECARYRACTDAAYSLLRELQAEPGLPGAAARKVRDWLCAVEGERSALSSASGPDSGIESASVEDQAAQGAGGRKEDEGAQQLLTLQNQVARLEEENRDFLAALEDAMEQYKLQSDRLREQQEEMVELRLRLELVRPGWGGPRLLNGLPPGSFVPRPHTAPLGGAHAHVLGMVPPACLPGDEVGSEQRGEQVTNGREAGAELLTEVNRLGSGSSAASEEEEEEEEPPRRTLHLRRNRISNCSQRAGARPGSLPERKGPELCLEELDAAIPGSRAVGGSKARVQARQVPPATASEWRLAQAQQKIRELAINIRMKEELIGELVRTGKAAQALNRQHSQRIRELEQEAEQVRAELSEGQRQLRELEGKELQDAGERSRLQEFRRRVAAAQSQVQVLKEKKQATERLVSLSAQSEKRLQELERNVQLMRQQQGQLQRRLREETEQKRRLEAEMSKRQHRVKELELKHEQQQKILKIKTEEIAAFQRKRRSGSNGSVVSLEQQQKIEEQKKWLDQEMEKVLQQRRALEELGEELHKREAILAKKEALMQEKTGLESKRLRSSQALNEDIVRVSSRLEHLEKELSEKSGQLRQGSAQSQQQIRGEIDSLRQEKDSLLKQRLEIDGKLRQGSLLSPEEERTLFQLDEAIEALDAAIEYKNEAITCRQRVLRASASLLSQCEMNLMAKLSYLSSSETRALLCKYFDKVVTLREEQHQQQIAFSELEMQLEEQQRLVYWLEVALERQRLEMDRQLTLQQKEHEQNMQLLLQQSRDHLGEGLADSRRQYEARIQALEKELGRYMWINQELKQKLGGVNAVGHSRGGEKRSLCSEGRQAPGNEDELHLAPELLWLSPLTEGAPRTREETRDLVHAPLPLTWKRSSLCGEEQGSPEELRQREAAEPLVGRVLPVGEAGLPWNFGPLSKPRRELRRASPGMIDVRKNPL [KIF7]”, the thermal stability score amounted to 1.88 with HeLa Kyoto [1] (setting [3]) and 2.73 in the data set on HeLa Kyoto [1] (cell cycle stage: mitosis). Besides, the results for the melting temperature in the data set with HeLa Kyoto [2] (cell cycle stage: G1/S) and with HeLa Kyoto [2] (cell cycle stage: mitosis) were 52.4 °C and 51.4 °C, respectively.

For “MREIVHIQAGQCGNQIGAKFWEVISDEHGIDPSGNYVGDSDLQLERISVYYNEASSHKYVPRAILVDLEPGTMDSVRSGAFGHLFRPDNFIFGQSGAGNNWAKGHYTEGAELVDSVLDVVRKECENCDCLQGFQLTHSLGGGTGSGMGTLLISKVREEYPDRIMNTFSVVPSPKVSDTVVEPYNATLSIHQLVENTDETYCIDNEALYDICFRTLKLATPTYGDLNHLVSATMSGVTTSLRFPGQLNADLRKLAVNMVPFPRLHFFMPGFAPLTARGSQQYRALTVPELTQQMFDAKNMMAACDPRHGRYLTVATVFRGRMSMKEVDEQMLAIQSKNSSYFVEWIPNNVKVAVCDIPPRGLKMSSTFIGNSTAIQELFKRISEQFTAMFRRKAFLHWYTGEGMDEMEFTEAESNMNDLVSEYQQYQDATAEEEGEMYEDDEEESEAQGPK [TUBB3]”, the figures for the thermal stability score with HeLa Kyoto [1] (setting [3]) and in the data set on HeLa Kyoto [1] (cell cycle stage: mitosis) were -0.669 and 0.329, respectively. The melting temperature with HeLa Kyoto [2] (cell cycle stage: G1/S) is 52.3 °C; with HeLa Kyoto [2] (cell cycle stage: mitosis), 54.3 °C.

In the case of “MREIVHIQAGQCGNQIGAKFWEVISDEHGIDPTGSYHGDSDLQLERINVYYNEAAGNKYVPRAILVDLEPGTMDSVRSGPFGQIFRPDNFVFGQSGAGNNWAKGHYTEGAELVDSVLDVVRKESESCDCLQGFQLTHSLGGGTGSGMGTLLISKIREEYPDRIMNTFSVMPSPKVSDTVVEPYNATLSVHQLVENTDETYSIDNEALYDICFRTLKLTTPTYGDLNHLVSATMSGVTTCLRFPGQLNADLRKLAVNMVPFPRLHFFMPGFAPLTSRGSQQYRALTVPELTQQMFDSKNMMAACDPRHGRYLTVAAIFRGRMSMKEVDEQMLNVQNKNSSYFVEWIPNNVKTAVCDIPPRGLKMSATFIGNSTAIQELFKRISEQFTAMFRRKAFLHWYTGEGMDEMEFTEAESNMNDLVSEYQQYQDATADEQGEFEEEEGEDEA [TUBB2A]”, the figures for the thermal stability score in the data set with HeLa Kyoto [1] (setting [3]) and in the data set with HeLa Kyoto [1] (cell cycle stage: mitosis) were -0.598 and -2.95, respectively. Moreover, the values for the melting temperature in the data set on HeLa Kyoto [2] (cell cycle stage: G1/S) and with HeLa Kyoto [2] (cell cycle stage: mitosis) were 56.7 °C and 54.9 °C, respectively.

In the case of “MREYKLVVLGSGGVGKSALTVQFVQGIFVEKYDPTIEDSYRKQVEVDAQQCMLEILDTAGTEQFTAMRDLYMKNGQGFALVYSITAQSTFNDLQDLREQILRVKDTDDVPMILVGNKCDLEDERVVGKEQGQNLARQWNNCAFLESSAKSKINVNEIFYDLVRQINRKTPVPGKARKKSSCQLL [RAP1B]”, the thermal stability score in the data set on HeLa Kyoto [1] (setting [3]) is -0.701; in the data set with HeLa Kyoto [1] (cell cycle stage: mitosis) it was -1.33. Further, the melting temperature in the data set on HeLa Kyoto [2] (cell cycle stage: G1/S) and with HeLa Kyoto [2] (cell cycle stage: mitosis) was 58.5 °C throughout.

Consider “MRLVILDNYDLASEWAAKYICNRIIQFKPGQDRYFTLGLPTGSTPLGCYKKLIEYHKNGHLSFKYVKTFNMDEYVGLPRNHPESYHSYMWNNFFKHIDIDPNNAHILDGNAADLQAECDAFENKIKEAGGIDLFVGGIGPDGHIAFNEPGSSLVSRTRLKTLAMDTILANAKYFDGDLSKVPTMALTVGVGTVMDAREVMILITGAHKAFALYKAIEEGVNHMWTVSAFQQHPRTIFVCDEDATLELRVKTVKYFKGLMHVHNKLVDPLFSMKDGN [GNPDA2]”, for which the thermal stability score with HeLa Kyoto [1] (setting [3]) was -0.549; with HeLa Kyoto [1] (cell cycle stage: mitosis) it was -0.194. Moreover, the values for the melting temperature in the data set on HeLa Kyoto [2] (cell cycle stage: G1/S) and in the data set on HeLa Kyoto [2] (cell cycle stage: mitosis) were 58.1 °C and 58.3 °C, respectively.

For the sequence “MRSPVRDLARNDGEESTDRTPLLPGAPRAEAAPVCCSARYNLAILAFFGFFIVYALRVNLSVALVDMVDSNTTLEDNRTSKACPEHSAPIKVHHNQTGKKYQWDAETQGWILGSFFYGYIITQIPGGYVASKIGGKMLLGFGILGTAVLTLFTPIAADLGVGPLIVLRALEGLGEGVTFPAMHAMWSSWAPPLERSKLLSISYAGAQLGTVISLPLSGIICYYMNWTYVFYFFGTIGIFWFLLWIWLVSDTPQKHKRISHYEKEYILSSLRNQLSSQKSVPWVPILKSLPLWAIVVAHFSYNWTFYTLLTLLPTYMKEILRFNVQENGFLSSLPYLGSWLCMILSGQAADNLRAKWNFSTLCVRRIFSLIGMIGPAVFLVAAGFIGCDYSLAVAFLTISTTLGGFCSSGFSINHLDIAPSYAGILLGITNTFATIPGMVGPVIAKSLTPDNTVGEWQTVFYIAAAINVFGAIFFTLFAKGEVQNWALNDHHGHRH [SLC17A5]”, the thermal stability score in the data set on HeLa Kyoto [1] (setting [3]) is -3.39; in the data set with HeLa Kyoto [1] (cell cycle stage: mitosis), -4.02. Further, the melting temperature in the data set on HeLa Kyoto [2] (cell cycle stage: G1/S) turned out to be 57.3 °C; in the data set with HeLa Kyoto [2] (cell cycle stage: mitosis), 57.6 °C.

As for “MSLLNCENSCGSSQSESDCCVAMASSCSAVTKDDSVGGTASTGNLSSSFMEEIQGYDVEFDPPLESKYECPICLMALREAVQTPCGHRFCKACIIKSIRDAGHKCPVDNEILLENQLFPDNFAKREILSLMVKCPNEGCLHKMELRHLEDHQAHCEFALMDCPQCQRPFQKFHINIHILKDCPRRQVSCDNCAASMAFEDKEIHDQNCPLANVICEYCNTILIREQMPNHYDLDCPTAPIPCTFSTFGCHEKMQRNHLARHLQENTQSHMRMLAQAVHSLSVIPDSGYISEVRNFQETIHQLEGRLVRQDHQIRELTAKMETQSMYVSELKRTIRTLEDKVAEIEAQQCNGIYIWKIGNFGMHLKCQEEEKPVVIHSPGFYTGKPGYKLCMRLHLQLPTAQRCANYISLFVHTMQGEYDSHLPWPFQGTIRLTILDQSEAPVRQNHEEIMDAKPELLAFQRPTIPRNPKGFGYVTFMHLEALRQRTFIKDDTLLVRCEVSTRFDMGSLRREGFQPRSTDAGV [TRAF6]”, the figures for the thermal stability score in the data set with HeLa Kyoto [1] (setting [3]) and in the data set on HeLa Kyoto [1] (cell cycle stage: mitosis) were 0.286 and -0.125, respectively. Besides, the melting temperature in the data set with HeLa Kyoto [2] (cell cycle stage: G1/S) turned out to be 51.5 °C; with HeLa Kyoto [2] (cell cycle stage: mitosis), 51.3 °C.

“MSSVQSQQEQLSQSDPSPSPNSCSSFELIDMDAGSLYEPVSPHWFYCKIIDSKETWIPFNSEDSQQLEEAYSSGKGCNGRVVPTDGGRYDVHLGERMRYAVYWDELASEVRRCTWFYKGDKDNKYVPYSESFSQVLEETYMLAVTLDEWKKKLESPNREIIILHNPKLMVHYQPVAGSDDWGSTPTEQGRPRTVKRGVENISVDIHCGEPLQIDHLVFVVHGIGPACDLRFRSIVQCVNDFRSVSLNLLQTHFKKAQENQQIGRVEFLPVNWHSPLHSTGVDVDLQRITLPSINRLRHFTNDTILDVFFYNSPTYCQTIVDTVASEMNRIYTLFLQRNPDFKGGVSIAGHSLGSLILFDILTNQKDSLGDIDSEKDSLNIVMDQGDTPTLEEDLKKLQLSEFFDIFEKEKVDKEALALCTDRDLQEIGIPLGPRKKILNYFSTRKNSMGIKRPAPQPASGANIPKESEFCSSSNTRNGDYLDVGIGQVSVKYPRLIYKPEIFFAFGSPIGMFLTVRGLKRIDPNYRFPTCKGFFNIYHPFDPVAYRIEPMVVPGVEFEPMLIPHHKGRKRMHLELREGLTRMSMDLKNNLLGSLRMAWKSFTRAPYPALQASETPEETEAEPESTSEKPSDVNTEETSVAVKEEVLPINVGMLNGGQRIDYVLQEKPIESFNEYLFALQSHLCYWESEDTVLLVLKEIYQTQGIFLDQPLQ [DDHD2]”: the figures for the thermal stability score in the data set with HeLa Kyoto [1] (setting [3]) and with HeLa Kyoto [1] (cell cycle stage: mitosis) were 1.25 and 0.742, respectively. For the same sequence, the melting temperature was determined as 55.4 °C in the data set with HeLa Kyoto [2] (cell cycle stage: G1/S) and 54.7 °C with HeLa Kyoto [2] (cell cycle stage: mitosis).
